The record followed here is publication PMC8179113 (Cell, 2021).

For the test, the target named is SARS-CoV-2 spike receptor binding domain (SARS-CoV-2, UniProt P0DTC2). Nature of the test: cryo-EM structure.

B1: REGN10985 Fab (Fab, V domains shown)
VH: EVQLVESGGGLVQPGRSLRLSCAASGFTFDDYAMHWVRQAPGKGLEWVSGISWNRGSIGYADSVKGRFTISRDNAKNSLYLQMSSLRAEDTALYYCAKDGERWDSVVVPSARNGMDVWGQGTTVTVSS
VL: QSVLTQPPSVSGAPGQRVTISCTGSSSNIGAGYDVHWYQQLPGTAPKLLIYGNSNRPSGVPDRFSGSKSGTSASLAITGLQAEDEADYYCQSYDSSLSGSYVFGTGTKVTVL
Consider B1, for which the binding result is recorded as “binds”.

B2: REGN10989 Fab (Fab, V domains shown)
VH: QVQLVQSGAEVKKPGASVKVSCKASGYIFTGYYMHWVRQAPGQGLEWMGWINPNSGGANYAQKFQGRVTLTRDTSITTVYMELSRLRFDDTAVYYCARGSRYDWNQNNWFDPWGQGTLVTVSS
VL: QSALTQPASVSGSPGQSITISCTGTSSDVGTYNYVSWYQQHPGKAPKLMIFDVSNRPSGVSDRFSGSKSGNTASLTISGLQAEDEADYYCSSFTTSSTVVFGGGTKLTVL
Turning to B2, the binding result was “binds”.
